Test results as given in article doi:10.1101/2022.03.13.484121, “Helical ultrastructure of the oncogenic metalloprotease meprin α in complex with a small molecule hydroxamate inhibitor” (bioRxiv, 2022).
Changes are numbered by the printed parent chain. Names may count otherwise.

B1: pro-meprin α R372T (enzyme, human (from the printed accession), UniProt Q16819 22-600, looked up)
chain: VPIKYLPEENVHDADFGEQKDISEINLAAGLDLFQGDILLQKSRNGLRDPNTRWTFPIPYILADNLGLNAKGAILYAFEMFRLKSCVDFKPYEGESSYIIFQQFDGCWSEVGDQHVGQNISIGQGCAYKAIIEHEILHALGFYHEQSRTDRDDYVNIWWDQILSGYQHNFDTYDDSLITDLNTPYDYESLMHYQPFSFNKNASVPTITAKIPEFNSIIGQRLDFSAIDLERLNRMYNCTTTHTLLDHCTFEKANICGMIQGTRDDTDWAHQDSAQAGEVDHTLLGQCTGAGYFMQFSTSSGSAEEAALLESRILYPKRKQQCLQFFYKMTGSPSDRLVVWVRRDDSTGNVTKLVKVQTFQGDDDHNWKIAHVVLKEEQKFRYLFQGTKGDPQNSTGGIYLDDITLTETPCPTGVWTVRNFSQVLENTSKGDKLQSPRFYNSEGYGFGVTLYPNSRESSGYLRLAFHVCSGENDAILEWPVENRQVIITILDQEPDVRNRMSSSMVFTTSKSHTSPAINDTVIWDRPSRVGTYHTDCNCFRSIDLGWSGFISHQMLKRRSFLKNDDLIIFVDFEDITHLS
notes: meprin α pro-form V22-S600 of uniprot Q16819 with R372T (removes a salt bridge of the helix interface); SEC-MALS was done on the zymogen (legend S6c); also called Pro-Meprin α variant R372T; source: S2 cells, secreted, purified (HIC-EBA, Strep-Tactin)
B2: pro-meprin α R372A (enzyme, human (from the printed accession), UniProt Q16819 22-600, looked up)
chain: B1 chain with T351A
notes: meprin α pro-form V22-S600 of uniprot Q16819 with R372A (removes a salt bridge of the helix interface); source: S2 cells, secreted, purified (HIC-EBA, Strep-Tactin)
B3: pro-meprin α (V22-S600), wild type (enzyme, human (from the printed accession), UniProt Q16819 22-600, looked up)
chain: B1 chain with T351R
modifications: N-linked glycosylations (sites not given in the text)
notes: meprin α, pro-form without signal peptide, EGF-like domain and transmembrane region; V22-S600 of uniprot Q16819; Cloned into pMT/BiP/V5; Subunits form a disulphide-linked (C308) homodimer; the dimers form helical filaments; also called zymogen; wild type meprin α; source: Schneider-2 Drosophila cells (S2), secreted, purified (HIC-EBA, Strep-Tactin)
B4: meprin α, active (mature) form, wild type (enzyme, human (from the printed accession), UniProt Q16819 22-600, looked up)
chain: NGLRDPNTRWTFPIPYILADNLGLNAKGAILYAFEMFRLKSCVDFKPYEGESSYIIFQQFDGCWSEVGDQHVGQNISIGQGCAYKAIIEHEILHALGFYHEQSRTDRDDYVNIWWDQILSGYQHNFDTYDDSLITDLNTPYDYESLMHYQPFSFNKNASVPTITAKIPEFNSIIGQRLDFSAIDLERLNRMYNCTTTHTLLDHCTFEKANICGMIQGTRDDTDWAHQDSAQAGEVDHTLLGQCTGAGYFMQFSTSSGSAEEAALLESRILYPKRKQQCLQFFYKMTGSPSDRLVVWVRRDDSTGNVRKLVKVQTFQGDDDHNWKIAHVVLKEEQKFRYLFQGTKGDPQNSTGGIYLDDITLTETPCPTGVWTVRNFSQVLENTSKGDKLQSPRFYNSEGYGFGVTLYPNSRESSGYLRLAFHVCSGENDAILEWPVENRQVIITILDQEPDVRNRMSSSMVFTTSKSHTSPAINDTVIWDRPSRVGTYHTDCNCFRSIDLGWSGFISHQMLKRRSFLKNDDLIIFVDFEDITHLS
modifications: N-linked glycosylations (sites not given in the text)
notes: meprin α construct V22-S600 of uniprot Q16819 after removal of the pro-peptide by trypsin; also called active state

Legend:
[1] = target: the molecule itself; test: MALDI-TOF mass spectrometry; C4 ZipTip purified samples, DHAP matrix, linear positive mode; zymogen and mature forms; shows only the covalent (disulphide) dimer
[2] = target: the molecule itself; test: electron microscopy (cryo-TEM, 120 kV); inspection of particles of the purified variants

Row | Protein | stoichiometry N [1] | stoichiometry N [2]
1 | B1 | 2 | 
2 | B2 |  | 2
3 | B3 | 2 | 
4 | B4 | 2 | 
